Laboratory results as given in US20170306033A1 (Amgen, published 2017).

T1: human PAC1 receptor (human, UniProt P41586 21-468)
T1 sequence: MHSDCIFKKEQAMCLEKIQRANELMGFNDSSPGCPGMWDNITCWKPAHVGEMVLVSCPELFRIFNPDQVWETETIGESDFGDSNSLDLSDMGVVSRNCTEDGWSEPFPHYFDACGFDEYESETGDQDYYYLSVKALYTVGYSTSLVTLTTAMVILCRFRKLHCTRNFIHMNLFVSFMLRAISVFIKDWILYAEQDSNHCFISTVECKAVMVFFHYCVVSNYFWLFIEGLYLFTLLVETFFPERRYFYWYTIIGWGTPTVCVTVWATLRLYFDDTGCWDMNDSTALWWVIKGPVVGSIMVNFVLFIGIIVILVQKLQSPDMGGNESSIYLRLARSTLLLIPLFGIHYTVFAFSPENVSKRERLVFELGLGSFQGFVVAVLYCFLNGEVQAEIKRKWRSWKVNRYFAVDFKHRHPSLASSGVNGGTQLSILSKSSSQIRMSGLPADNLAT


Legend:
human CGRP receptor = human CGRP receptor (human, UniProt Q16602 23-461; O60894 27-148); assay: cell-based or functional assay
human PAC1 receptor = molecular target: T1, human PAC1 receptor; assay: cell-based or functional assay

Sequence of human CGRP receptor (Q16602 23-461 limits assumed, chain 1 of 2): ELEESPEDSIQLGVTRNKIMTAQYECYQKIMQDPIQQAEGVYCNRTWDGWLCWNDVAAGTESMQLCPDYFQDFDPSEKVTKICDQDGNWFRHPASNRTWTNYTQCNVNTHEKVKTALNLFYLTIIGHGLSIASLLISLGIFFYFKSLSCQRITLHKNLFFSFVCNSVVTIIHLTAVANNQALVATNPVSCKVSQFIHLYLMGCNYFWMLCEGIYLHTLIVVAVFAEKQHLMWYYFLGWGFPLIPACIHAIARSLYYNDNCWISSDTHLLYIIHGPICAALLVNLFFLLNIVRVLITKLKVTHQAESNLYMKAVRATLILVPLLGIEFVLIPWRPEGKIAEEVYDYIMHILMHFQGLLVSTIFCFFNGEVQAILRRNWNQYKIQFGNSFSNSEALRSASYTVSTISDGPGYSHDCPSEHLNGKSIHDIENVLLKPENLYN
Sequence of human CGRP receptor (O60894 27-148 limits assumed, chain 2 of 2): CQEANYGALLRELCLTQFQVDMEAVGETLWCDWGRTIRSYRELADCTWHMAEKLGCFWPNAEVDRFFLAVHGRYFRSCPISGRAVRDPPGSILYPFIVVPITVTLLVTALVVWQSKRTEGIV

| Binder | % inhibition of human CGRPR (human CGRP receptor) | % inhibition of human PAC1 (human PAC1 receptor) |
| --- | --- | --- |
| iPS:327718 (bispecific antibody, human IgG1, kappa, lambda, N297G) light 1: not shown heavy 1: not shown light 2: QSVLTQPPSVSAAPGQKVTISCSGSSSNIGNNYVSWYQQLPGTAPKLLIYDNNKRPSGIPDRFSGSKSGTSATLAITGLQTGDEADYYCGTWDSRLSAVVFGGGTKLTVLGQPKANPTVTLFPPSSEELQANKATLVCLISDFYPGAVTVAWKADGSPVKAGVETTKPSKQSNNKYAAKSYLSLTPEQWKSHRSYSCQVTHEGSTVEKTVAPTECS heavy 2: QVQLVESGGGVVQPGRSLRLSCAASGFTFSSFGMHWVRQAPGKGLEWVAVISFDGSIKYSVDSVKGRFTISRDNSKNTLFLQMNSLRAEDTAVYYCARDRLNYYDSSGYYHYKYYGMAVWGQGTTVTVSSASTKGPSVFPLAPSSKSTSGGTAALGCLVKDYFPEPVTVSWNSGALTSGVHTFPAVLQSSGLYSLESVVTVPSSSLGTQTYICNVNHKPSNTKVDKKVEPKSCDKTHTCPPCPAPELLGGPSVFLFPPKPKDTLMISRTPEVTCVVVDVSHEDPEVKFNWYVDGVEVHNAKTKPCEEQYGSTYRCVSVLTVLHQDWLNGKEYKCKVSNKALPAPIEKTISKAKGQPREPQVYTLPPSRKEMTKNQVSLTCLVKGFYPSDIAVEWESNGQPENNYKTTPPVLKSDGSFFLYSKLTVDKSRWQQGNVFSCSVMHEALHNHYTQKSLSLSPGK | 78% | 70% |
| iPS:327719 (bispecific antibody, human IgG1, kappa, lambda, N297G) light 1: DIQLTQSPSFLSASVGDRVTITCRASQSIGRSLHWYQQKPGKAPKLLIKYASQSLSGVPSRFSGSGSGTEFTLTISSLQPEDFATYYCHQSSRLPFTFGPGTKVDIKRTVAAPSVFIFPPSDEQLKSGTASVVCLLNNFYPREAKVQWKVDNALQSGNSQESVTEQDSKDSTYSLESTLTLSKADYEKHKVYACEVTHQGLSSPVTKSFNRGEC heavy 1: not shown light 2: QSVLTQPPSVSAAPGQKVTISCSGSSSNIGNNYVSWYQQLPGTAPKLLIYDNNKRPSGIPDRFSGSKSGTSATLAITGLQTGDEADYYCGTWDSRLSAVVFGGGTKLTVLGQPKANPTVTLFPPSSEELQANKATLVCLISDFYPGAVTVAWKADGSPVKAGVETTKPSKQSNNKYAAKSYLSLTPEQWKSHRSYSCQVTHEGSTVEKTVAPTECS heavy 2: QVQLVESGGGVVQPGRSLRLSCAASGFTFSSFGMHWVRQAPGKGLEWVAVISFDGSIKYSVDSVKGRFTISRDNSKNTLFLQMNSLRAEDTAVYYCARDRLNYYDSSGYYHYKYYGMAVWGQGTTVTVSSASTKGPSVFPLAPSSKSTSGGTAALGCLVKDYFPEPVTVSWNSGALTSGVHTFPAVLQSSGLYSLESVVTVPSSSLGTQTYICNVNHKPSNTKVDKKVEPKSCDKTHTCPPCPAPELLGGPSVFLFPPKPKDTLMISRTPEVTCVVVDVSHEDPEVKFNWYVDGVEVHNAKTKPCEEQYGSTYRCVSVLTVLHQDWLNGKEYKCKVSNKALPAPIEKTISKAKGQPREPQVYTLPPSRKEMTKNQVSLTCLVKGFYPSDIAVEWESNGQPENNYKTTPPVLKSDGSFFLYSKLTVDKSRWQQGNVFSCSVMHEALHNHYTQKSLSLSPGK | 85% | 59% |
| iPS:327731 (bispecific antibody, human IgG1, kappa, lambda, N297G) light 1: not shown heavy 1: not shown light 2: QSVLTQPPSVSAAPGQKVTISCSGSSSNIGNNYVSWYQQLPGTAPKLLIYDNNKRPSGIPDRFSGSKSGTSATLGITGLQTGDEADYYCGTWDSRLSAVVFGGGTKLTVLGQPKANPTVTLFPPSSEELQANKATLVCLISDFYPGAVTVAWKADGSPVKAGVETTKPSKQSNNKYAAKSYLSLTPEQWKSHRSYSCQVTHEGSTVEKTVAPTECS heavy 2: QVQLVESGGGVVQPGRSLRLSCAASGFTFSSFGMHWVRQAPGKGLEWVAVISFDGSIKYSVDSVKGRFTISRDNSKNTLFLQMNSLRAEDTAVYYCARDRLNYYESSGYYHYKYYGMAVWGQGTTVTVSSASTKGPSVFPLAPSSKSTSGGTAALGCLVKDYFPEPVTVSWNSGALTSGVHTFPAVLQSSGLYSLESVVTVPSSSLGTQTYICNVNHKPSNTKVDKKVEPKSCDKTHTCPPCPAPELLGGPSVFLFPPKPKDTLMISRTPEVTCVVVDVSHEDPEVKFNWYVDGVEVHNAKTKPCEEQYGSTYRCVSVLTVLHQDWLNGKEYKCKVSNKALPAPIEKTISKAKGQPREPQVYTLPPSRKEMTKNQVSLTCLVKGFYPSDIAVEWESNGQPENNYKTTPPVLKSDGSFFLYSKLTVDKSRWQQGNVFSCSVMHEALHNHYTQKSLSLSPGK | 74% | 74% |
| iPS:327730 (bispecific antibody, human IgG1, kappa, lambda, N297G) light 1: EIVLTQSPATLSLSPGERATLSCRASQSVGRSLHWYQQKPGQAPRLLIKYASQSLSGIPARFSGSGSGTDFTLTISSLEPEDFAVYYCHQSSRLPFTFGPGTKVDIKRTVAAPSVFIFPPSDEQLKSGTASVVCLLNNFYPREAKVQWKVDNALQSGNSQESVTEQDSKDSTYSLESTLTLSKADYEKHKVYACEVTHQGLSSPVTKSFNRGEC heavy 1: not shown light 2: QSVLTQPPSVSAAPGQKVTISCSGSSSNIGNNYVSWYQQLPGTAPKLLIYDNNKRPSGIPDRFSGSKSGTSATLAITGLQTGDEADYYCGTWDSRLSAVVFGGGTKLTVLGQPKANPTVTLFPPSSEELQANKATLVCLISDFYPGAVTVAWKADGSPVKAGVETTKPSKQSNNKYAAKSYLSLTPEQWKSHRSYSCQVTHEGSTVEKTVAPTECS heavy 2: QVQLVESGGGVVQPGRSLRLSCAASGFTFSSFGMHWVRQAPGKGLEWVAVISFDGSIKYSVDSVKGRFTISRDNSKNTLFLQMNSLRAEDTAVYYCARDRLNYYDSSGYYHYKYYGMAVWGQGTTVTVSSASTKGPSVFPLAPSSKSTSGGTAALGCLVKDYFPEPVTVSWNSGALTSGVHTFPAVLQSSGLYSLESVVTVPSSSLGTQTYICNVNHKPSNTKVDKKVEPKSCDKTHTCPPCPAPELLGGPSVFLFPPKPKDTLMISRTPEVTCVVVDVSHEDPEVKFNWYVDGVEVHNAKTKPCEEQYGSTYRCVSVLTVLHQDWLNGKEYKCKVSNKALPAPIEKTISKAKGQPREPQVYTLPPSRKKMTKNQVSLTCLVKGFYPSDIAVEWESNGQPENNYKTTPPVLKSDGSFFLYSKLTVDKSRWQQGNVFSCSVMHEALHNHYTQKSLSLSPGK | 87% | 101% |

Next, values leading:

| % inhibition of human CGRPR (human CGRP receptor) | % inhibition of human PAC1 (human PAC1 receptor) | Binder |
| --- | --- | --- |
| 67% | 86% | iPS:327870 (bispecific antibody, human IgG2, kappa, lambda) light 1: not shown heavy 1: QVQLQQSGPGLVKPSQTLSLTCAISGDSVSSNSATWNWIRQSPSRGLEWLGRTYYRSKWSNHYAVSVKSRITINPDTSKSQFSLQLNSVTPEDTAVYYCARGTWKQLWFLDHWGQGTLVTVSSASTKGPSVFPLAPCSRSTSESTAALGCLVKDYFPEPVTVSWNSGALTSGVHTFPAVLQSSGLYSLKSVVTVPSSNFGTQTYTCNVDHKPSNTKVDKTVERKCCVECPPCPAPPVAGPSVFLFPPKPKDTLMISRTPEVTCVVVDVSHEDPEVQFNWYVDGVEVHNAKTKPREEQFNSTFRVVSVLTVVHQDWLNGKEYKCKVSNKGLPAPIEKTISKTKGQPREPQVYTLPPSREEMTKNQVSLTCLVDGFYPSDIAVEWESNGQPENNYDTTPPMLDSDGSFFLYSDLTVDKSRWQQGNVFSCSVMHEALHNHYTQKSLSLSPGK light 2: QSVLTQPPSVSAAPGQKVTISCSGSSSNIGNNYVSWYQQLPGTAPKLLIYDNNKRPSGIPDRFSGSKSGTSTTLGITGLQTGDEADYYCGTWDSRLSAVVFGGGTKLTVLGQPKANPTVTLFPPSSEELQANKATLVCLISDFYPGAVTVAWKADGSPVKAGVETTKPSKQSNNKYAAKSYLSLTPEQWKSHRSYSCQVTHEGSTVEKTVAPTECS heavy 2: QVQLVESGGGVVQPGRSLRLSCAASGFTFSSFGMHWVRQAPGKGLEWVAVISFDGSIKYSVDSVKGRFTISRDNSKNTLFLQMNSLRAEDTAVYYCARDRLNYYDSSGYYHYKYYGMAVWGQGTTVTVSSASTKGPSVFPLAPCSRSTSESTAALGCLVKDYFPEPVTVSWNSGALTSGVHTFPAVLQSSGLYSLESVVTVPSSNFGTQTYTCNVDHKPSNTKVDKTVERKCCVECPPCPAPPVAGPSVFLFPPKPKDTLMISRTPEVTCVVVDVSHEDPEVQFNWYVDGVEVHNAKTKPREEQFNSTFRVVSVLTVVHQDWLNGKEYKCKVSNKGLPAPIEKTISKTKGQPREPQVYTLPPSRKKMTKNQVSLTCLVKGFYPSDIAVEWESNGQPENNYKTTPPMLKSDGSFFLYSKLTVDKSRWQQGNVFSCSVMHEALHNHYTQKSLSLSPGK |
| 81% | 99% | iPS:327721 (bispecific antibody, human IgG1, kappa, lambda, N297G) light 1: EIVLTQSPATLSLSPGERATLSCRASQSVGRSLHWYQQKPGQAPRLLIKYASQSLSGIPARFSGSGSGTDFTLTISSLEPEDFAVYYCHQSSRLPFTFGPGTKVDIKRTVAAPSVFIFPPSDEQLKSGTASVVCLLNNFYPREAKVQWKVDNALQSGNSQESVTEQDSKDSTYSLESTLTLSKADYEKHKVYACEVTHQGLSSPVTKSFNRGEC heavy 1: not shown light 2: QSVLTQPPSVSAAPGQKVTISCSGSSSNIGNNYVSWYQQLPGTAPKLLIYDNNKRPSGIPDRFSGSKSGTSATLAITGLQTGDEADYYCGTWDSRLSAVVFGGGTKLTVLGQPKANPTVTLFPPSSEELQANKATLVCLISDFYPGAVTVAWKADGSPVKAGVETTKPSKQSNNKYAAKSYLSLTPEQWKSHRSYSCQVTHEGSTVEKTVAPTECS heavy 2: QVQLVESGGGVVQPGRSLRLSCAASGFTFSSFGMHWVRQAPGKGLEWVAVISFDGSIKYSVDSVKGRFTISRDNSKNTLFLQMNSLRAEDTAVYYCARDRLNYYDSSGYYHYKYYGMAVWGQGTTVTVSSASTKGPSVFPLAPSSKSTSGGTAALGCLVKDYFPEPVTVSWNSGALTSGVHTFPAVLQSSGLYSLESVVTVPSSSLGTQTYICNVNHKPSNTKVDKKVEPKSCDKTHTCPPCPAPELLGGPSVFLFPPKPKDTLMISRTPEVTCVVVDVSHEDPEVKFNWYVDGVEVHNAKTKPCEEQYGSTYRCVSVLTVLHQDWLNGKEYKCKVSNKALPAPIEKTISKAKGQPREPQVYTLPPSRKEMTKNQVSLTCLVKGFYPSDIAVEWESNGQPENNYKTTPPVLKSDGSFFLYSKLTVDKSRWQQGNVFSCSVMHEALHNHYTQKSLSLSPGK |
